Assay [1] concerns the target T1, Human NKp46 recombinant protein (human, UniProt O76036 22-258).
T1 construct: also called recombinant human NKp46 proteins
Kind of assay: SPR (Biacore T100), bispecific captured on Protein-A chip, soluble recombinant human NKp46. As for the experimental part: SPR measurements were performed on a Biacore T100 apparatus (Biacore GE Healthcare) at 25° C. In all Biacore experiments HBS-EP+ (Biacore GE Healthcare) and NaOH 10 mM served as running buffer and regeneration buffer respectively. Sensorgrams were analyzed with Biacore T100 Evaluation software. Protein-A was purchased from (GE Healthcare). Human NKp46 recombinant proteins were cloned, produced and purified at Innate Pharma.
The chip surface was activated with EDC/NHS (N-ethyl-N′-(3-dimethylaminopropyl) carbodiimidehydrochloride and N-hydroxysuccinimide (Biacore GE Healthcare)). Protein-A was diluted to 10 μg/ml in coupling buffer (10 mM acetate, pH 5.6) and injected until the appropriate immobilization level was reached (i.e. 2000 RU). Deactivation of the remaining activated groups was performed using 100 mM ethanolamine pH 8 (Biacore GE Healthcare).
Seven serial dilutions of human NKp46 recombinant proteins, ranging from 6.25 to 400 nM were sequentially injected over the captured Bi-Specific antibodies and allowed to dissociate for 10 min before regeneration. The entire sensorgram sets were fitted using the 1:1 kinetic binding model.

Assay [2] has as its target T2, Human CD64 (human, UniProt P12314 16-288, limits assumed).
T2 construct: also called FcγRI
Kind of assay: SPR (Biacore T100), bispecific immobilised on CM5 chip, soluble CD64 0.7-60 nM, 1:1 kinetic model. As for the experimental part: (§1) SPR measurements were performed on a Biacore T100 apparatus (Biacore GE Healthcare) at 25° C. In all Biacore experiments HBS-EP+ (Biacore GE Healthcare) and 10 mM NaOH, 500 mM NaCl served as running buffer and regeneration buffer respectively. Sensorgrams were analyzed with Biacore T100 Evaluation software. Recombinant human FcR's (CD64, CD32a, CD32b, CD16a and CD16b) were cloned, produced and purified.
(§2) The chip surface was activated with EDC/NHS (N-ethyl-N′-(3-dimethylaminopropyl) carbodiimidehydrochloride and N-hydroxysuccinimide (Biacore GE Healthcare)). Bispecific antibodies were diluted to […] in coupling buffer (10 mM acetate, pH 5.6) and injected until the appropriate immobilization level was reached (i.e. 800 to 900 RU). Deactivation of the remaining activated groups was performed using 100 mM ethanolamine pH 8 (Biacore GE Healthcare).
(§3) Monovalent affinity study was assessed following a classical kinetic wizard (as recommended by the manufacturer). Serial dilutions of soluble analytes (FcRs) ranging from 0.7 to 60 nM for CD64 and from 60 to 5000 nM for all the other FcRs were injected over the immobilized bispecific antibodies and allowed to dissociate for 10 min before regeneration. The entire sensorgram sets were fitted using the 1:1 kinetic binding model for CD64 and with the Steady State Affinity model for all the other FcRs.

Assay [3] concerns the target T3, Human CD32a (human, UniProt P12318 36-218, limits assumed).
T3 construct: also called FcγRIIA
T3 sequence (looked up): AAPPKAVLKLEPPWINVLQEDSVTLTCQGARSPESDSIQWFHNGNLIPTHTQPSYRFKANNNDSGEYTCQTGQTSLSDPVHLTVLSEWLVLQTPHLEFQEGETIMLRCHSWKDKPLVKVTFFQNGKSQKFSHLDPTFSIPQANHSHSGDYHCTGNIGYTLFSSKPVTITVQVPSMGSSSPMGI
As to the kind of experiment: SPR (Biacore T100), bispecific immobilised on CM5 chip, soluble FcR 60-5000 nM, Steady State Affinity model. As for the experimental part:
as §1, §2, §3

In assay [4] the target is T4, Human CD32b (human, UniProt P31994 46-217, limits assumed).
T4 construct: also called FcγRIIB
T4 sequence (looked up): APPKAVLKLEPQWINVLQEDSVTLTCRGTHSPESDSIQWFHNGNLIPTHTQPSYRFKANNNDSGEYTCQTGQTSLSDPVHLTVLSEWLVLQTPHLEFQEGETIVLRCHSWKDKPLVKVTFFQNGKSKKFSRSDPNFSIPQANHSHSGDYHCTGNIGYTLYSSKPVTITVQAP
The assay is described as above. As for the experimental part:
as §1, §2, §3

Assay [5] concerns the target T5, Human CD16a (human, UniProt P08637 17-208).
T5 construct: also called FcγRIIIa
The description is as above. As for the experimental part:
as §1, §2, §3

The target of assay [6] is T6, Human CD16b (human, UniProt O75015 17-200).
T6 construct: also called FcγRIIIb
The description is as above. As for the experimental part: as §1, §2, §3

Assay [7] has as its target T2, Human CD64. Kind of assay: SPR (Biacore T100), bispecific immobilised on CM5 chip, soluble FcR. As for the experimental part:
as §1, §2, §3

The target of assay [8] is T3, Human CD32a. The description is as above. As for the experimental part:
as §1, §2, §3

In assay [9] the target is T4, Human CD32b. The assay is described as above. As for the experimental part: as §1, §2, §3
The target in assay [10] is T5, Human CD16a. The description is as above. As for the experimental part: as §1, §2, §3
Assay [11] concerns the target T6, Human CD16b. Described as above. As for the experimental part: as §1, §2, §3

T2 sequence (P12314 16-288 limits assumed): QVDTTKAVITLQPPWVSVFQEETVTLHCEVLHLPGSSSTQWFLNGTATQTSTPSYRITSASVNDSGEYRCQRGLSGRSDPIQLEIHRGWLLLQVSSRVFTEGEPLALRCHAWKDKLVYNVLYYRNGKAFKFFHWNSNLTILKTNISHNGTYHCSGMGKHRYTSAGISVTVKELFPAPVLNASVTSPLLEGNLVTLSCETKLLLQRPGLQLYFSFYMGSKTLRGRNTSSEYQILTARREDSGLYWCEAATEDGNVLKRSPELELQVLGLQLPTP
T6 sequence (O75015 17-200 limits assumed): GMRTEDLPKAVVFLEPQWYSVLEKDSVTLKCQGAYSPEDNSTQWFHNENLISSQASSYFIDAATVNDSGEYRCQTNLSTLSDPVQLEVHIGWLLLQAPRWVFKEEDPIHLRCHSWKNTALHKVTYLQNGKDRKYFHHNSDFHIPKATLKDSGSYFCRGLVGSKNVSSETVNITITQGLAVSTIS
T5 sequence (P08637 17-208 limits assumed): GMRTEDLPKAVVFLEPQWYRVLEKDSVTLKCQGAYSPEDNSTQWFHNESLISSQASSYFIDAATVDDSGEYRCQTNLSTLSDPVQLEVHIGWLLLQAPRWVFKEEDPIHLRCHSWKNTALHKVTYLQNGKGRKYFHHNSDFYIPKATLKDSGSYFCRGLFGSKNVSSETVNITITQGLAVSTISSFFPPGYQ
T1 sequence (O76036 22-258 Q82K limits assumed): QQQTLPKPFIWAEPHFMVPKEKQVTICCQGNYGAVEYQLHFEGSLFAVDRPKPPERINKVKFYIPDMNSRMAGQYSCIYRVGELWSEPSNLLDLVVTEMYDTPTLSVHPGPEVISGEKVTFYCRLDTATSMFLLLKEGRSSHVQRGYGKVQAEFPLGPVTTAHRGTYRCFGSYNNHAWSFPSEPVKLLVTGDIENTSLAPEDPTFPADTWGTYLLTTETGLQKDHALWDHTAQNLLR

B1: CD19-F1-NKp46-6 (bispecific antibody)
chain: DIQLTQSPASLAVSLGQRATISCKASQSVDYDGDSYLNWYQQIPGQPPKLLIYDASNLVSGIPPRFSGSGSGTDFTLNIHPVEKVDAATYHCQQSTEDPWTFGGGTKLEIKGGGGSGGGGSGGGGSQVQLQQSGAELVRPGSSVKISCKASGYAFSSYWMNWVKQRPGQGLEWIGQIWPGDGDTNYNGKFKGKATLTADESSSTAYMQLSSLASEDSAVYFCARRETTTVGRYYYAMDYWGQGTTVTVSSGGGSSAPELLGGPSVFLFPPKPKDTLMISRTPEVTCVVVDVSHEDPEVKFNWYVDGVEVHNAKTKPREEQYNSTYRVVSVLTVLHQDWLNGKEYKCKVSNKALPAPIEKTISKAKGQPREPQVYTKPPSREEMTKNQVSLSCLVKGFYPSDIAVEWESNGQPENNYKTTVPVLDSDGSFRLASYLTVDKSRWQQGNVFSCSVMHEALHNHYTQKSLSLSPGSTGSQVQLQQPGSVLVRPGASVKLSCKASGYTFTSSWMHWAKQRPGQGLEWIGHIHPNSGISNYNEKFKGKATLTVDTSSSTAYVDLSSLTSEDSAVYYCARGGRFDDWGAGTTVTVSSVEGGSGGSGGSGGSGGVDDIVMTQSPATLSVTPGDRVSLSCRASQSISDYLHWYQQKSHESPRLLIKYASQSISGIPSRFSGSGSGSDFTLSINSVEPEDVGVYYCQNGHSFLMYTFGGGTKLEIK
notes: Single chain F1 format, complete mature protein
For B1, the binding result in assay [1] is given as “no binding”.

B2: CD19-F5-NKp46-3 (bispecific antibody, human IgG1, kappa)
chain 1: not shown
chain 2: not shown
chain 3: DIVMTQSPATLSVTPGDRVSLSCRASQSISDYLHWYQQKSHESPRLLIKYASQSISGIPSRFSGSGSGSDFTLSINSVEPEDVGVYYCQNGHSFPLTFGAGTKLELKASTKGPSVFPLAPSSKSTSGGTAALGCLVKDYFPEPVTVSWNSGALTSGVHTFPAVLQSSGLYSLSSVVTVPSSSLGTQTYICNVNHKPSNTKVDKRVEPKSCDKTH
For the molecule B2, the equilibrium dissociation constant (Kd) in assay [2] was found to be 0.0007 µM; in [3], 0.846 µM; in [4], 1.85 µM; in [5] it was 1.1 µM; in assay [6], 2.43 µM.

B3: CD19-F6-NKp46-3 (bispecific antibody, human IgG1, kappa)
chain 1: not shown
chain 2: not shown
chain 3: B2 chain 3
On to B3, for which the binding result in assay [7] was “no binding (tested: 0.7 to 60 nM)”; in assay [8], “no binding (tested: 60 to 5000 nM)”; in [9], “no binding (tested: 60 to 5000 nM)”; in [10], “no binding (tested: 60 to 5000 nM)”; in assay [11], “no binding (tested: 60 to 5000 nM)”.

Values taken from patent US20160369002A1 (INNATE PHARMA, published 2016).
